Measured values from article PMC7181197.
Where two headings read alike, the source gives them in different places.

How the values were obtained:
GFP-G3BP1(ΔRG) [1] = assay: SEC
GFP-G3BP1(ΔRG) [2] = target: GFP-G3BP1(ΔRG)

stoichiometry N (GFP-G3BP1(ΔRG) [1]): 2 | stoichiometry N (GFP-G3BP1(ΔRG) [2]): 2
Substance: GFP-G3BP1(ΔRG) (domain or fragment)
